# Source: paper doi:10.1101/629683
# Molecular target: mCh-vinT12-cBAK (constitutively active, opened form of full-length vinculin, mCherry-tagged, with cBAK) (gallus gallus) (UniProt P12003)
# Test: Fluorescence Loss After Photoactivation
# UniProt P12003, sequence (P12003 whole entry): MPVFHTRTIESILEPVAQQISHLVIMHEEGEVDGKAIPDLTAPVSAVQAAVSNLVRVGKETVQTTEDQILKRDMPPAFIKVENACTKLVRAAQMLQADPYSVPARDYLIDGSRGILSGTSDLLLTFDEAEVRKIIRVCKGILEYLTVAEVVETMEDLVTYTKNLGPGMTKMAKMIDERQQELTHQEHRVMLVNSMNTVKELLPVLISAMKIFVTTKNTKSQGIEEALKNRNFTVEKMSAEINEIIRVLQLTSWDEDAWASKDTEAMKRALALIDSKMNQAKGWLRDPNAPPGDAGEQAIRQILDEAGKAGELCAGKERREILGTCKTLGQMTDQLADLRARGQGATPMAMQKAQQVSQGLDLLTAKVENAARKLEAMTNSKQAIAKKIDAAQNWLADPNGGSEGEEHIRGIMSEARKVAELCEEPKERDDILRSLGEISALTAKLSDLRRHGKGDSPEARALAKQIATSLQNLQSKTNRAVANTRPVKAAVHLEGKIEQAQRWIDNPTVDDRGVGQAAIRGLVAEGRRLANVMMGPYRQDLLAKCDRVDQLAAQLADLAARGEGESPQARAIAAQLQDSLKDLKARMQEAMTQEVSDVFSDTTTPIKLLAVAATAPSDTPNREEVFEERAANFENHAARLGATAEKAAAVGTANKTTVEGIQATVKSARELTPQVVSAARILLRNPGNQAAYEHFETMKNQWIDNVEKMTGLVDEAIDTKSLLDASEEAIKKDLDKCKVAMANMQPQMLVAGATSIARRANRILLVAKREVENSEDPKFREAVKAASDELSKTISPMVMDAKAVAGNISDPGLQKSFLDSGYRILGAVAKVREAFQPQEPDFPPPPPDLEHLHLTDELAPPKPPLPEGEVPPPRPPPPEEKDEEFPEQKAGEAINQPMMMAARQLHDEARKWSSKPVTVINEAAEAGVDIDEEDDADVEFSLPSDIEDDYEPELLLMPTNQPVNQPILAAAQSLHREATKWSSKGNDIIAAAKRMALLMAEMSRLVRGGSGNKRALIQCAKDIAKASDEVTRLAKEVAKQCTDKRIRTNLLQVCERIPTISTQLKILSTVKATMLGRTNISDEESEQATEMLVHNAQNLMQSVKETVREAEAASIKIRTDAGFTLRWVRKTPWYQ
substance,measurement,value
Photo-Activatable (PA) GFP-TalinFL (from UniProt P26039 1-2541) (natural protein),mobile fraction (Mf) in FLAP,< 20%
